Here are results for five molecules from patent publication US20210179724A1 (TWIST BIOSCIENCE, published 2021).

The term EC50 (read off the curve) denotes the concentration giving half of the maximal effect. High values mean a less potent agent, low ones a more potent agent.

Experiment [1] addresses T1, adenosine A2A receptor (Homo sapiens (Human), UniProt P29274 1-412). In words: cell-based or functional assay.
The target in experiment [2] is T1, adenosine A2A receptor. In words: flow cytometry titration 0.05-100 nM IgG; grey series read as HEK293-A2a cells. How it is done:
Flow cytometry data showing binding to HEK293-A2a cells using immunoglobulins from variant libraries were generated using 100 nM IgG and compared to detected binding in parent cells. […] Selected variants were assessed for binding at concentrations titrated from 100 nM. […] Binding curves are plotted with IgG concentration vs. MFI (mean fluorescence intensity). […] Selected variants were assessed for binding at concentrations titrated from 100 nM. […] Binding curves are plotted with IgG concentration vs. MFI (mean fluorescence intensity).
In general terms: Flow cytometry measures light scatter and fluorescence of single cells or particles in a stream.

Experiment [3] deals with T1, adenosine A2A receptor. As to the kind of experiment: flow cytometry cell-binding titration 0.05-100 nM IgG.
Experiment [4] deals with T1, adenosine A2A receptor. As to the kind of experiment: flow cytometry cell-binding titration 0.05-100 nM IgG; panel title 'Immune Library to A2a protein + ZM241385' (panning group).
Experiment [5] concerns the target T1, adenosine A2A receptor. As to the kind of experiment: flow cytometry cell-binding titration 0.05-100 nM IgG; panel title 'Synthetic Library to A2a protein' (panning group).

T1 sequence (P29274 whole entry): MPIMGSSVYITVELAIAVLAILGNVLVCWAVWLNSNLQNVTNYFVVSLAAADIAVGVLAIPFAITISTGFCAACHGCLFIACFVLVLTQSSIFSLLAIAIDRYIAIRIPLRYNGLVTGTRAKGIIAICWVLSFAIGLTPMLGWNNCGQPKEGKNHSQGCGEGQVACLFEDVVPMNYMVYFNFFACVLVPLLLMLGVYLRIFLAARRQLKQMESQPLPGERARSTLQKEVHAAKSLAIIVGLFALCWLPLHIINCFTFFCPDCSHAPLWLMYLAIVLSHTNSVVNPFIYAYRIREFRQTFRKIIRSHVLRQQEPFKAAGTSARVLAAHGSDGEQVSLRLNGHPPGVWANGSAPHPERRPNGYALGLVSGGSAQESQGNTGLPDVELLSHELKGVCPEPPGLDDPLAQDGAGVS

B1: A2A - 53 (antibody, V domains shown)
VH: EVQLVESGGGLVKPGGSLRLSCAASGFNIIDDYMHWVRQAPGKGLEWVGMITDTGEPTDADSVKGRFTISRDNSKNTLYLQMNSLRAEDTAVYYCVYDYIYAMDYWGQGTLVTVSS
VL: DIQMTQSPSSLSASVGDRVTITCKASQNMGSNVAWYQQKPGKAPKLLIYSASHRSSGVPSRFSGSGSGTDFTLTISSLQPEDFATYYCQQWNYPRITFGQGTKLEIK
On to B1, for which, in the experiment with adenosine A2A receptor [1], the “IC50 (read off the curve), A2A antagonistic cAMP assay, RFU ratio 665/615 nm, 0.5 uM NECA” value was around 3 nM.

B2: A2A-9 (antibody, V domains shown)
VH: EVQLQQSGPGLVKPSQSLSLTCSVTGYSITSGYYWNWIRQFPGKKLEWMGYIRYDGSNNYNPSLKNRISITRDTSKNQFFLKLNSVTTDDTATYYCARVHHYYGSSYFDYWGQGTTLTVSS
VL: DIVMTQSQKFMSTSVGDRVSATCKASQNVGSSVAWFQQKPGQSPKALIYSTSYRYSGVPDRFTGSGSGTDFTLTISNVQSEDLAEYFCQQYNSYPLTFGAGTKLEIK
notes: Tested as IgG; also called A2AR variant A2A-9
On to B2, for which the “EC50 (read off the curve)” value in the experiment with adenosine A2A receptor [2] is around 4 nM.

B3: A2A - 77 (antibody, V domains shown)
VH: QVQLQESGPGLVKPSGTLSLTCAVSGGSISSSNWWSWVRQPPGKGLEWIGEIYHSGNTNYNPSLKSRVTMSVDKSKNQFSLNLHSVTAADTAVYYCAREVVSGMIGTIFDYWGQGTLVTVSS
VL: ELVMTQSPSSLSASVGDRVTITCRASQRISSYLNWYQQKPGKAPKLLIYAASSLQSRVPSRFSGSGSGTDFTLTISSLQPEDFATYYCQQSYSTPLTFGGGTKLETK
notes: tested as IgG
In the case of B3, the “EC50 (read off the curve)” value with adenosine A2A receptor [3] was around 6 nM.

B4: A2A - 81 (antibody, V domains shown)
VH: QVQLQESGPGLVKPSGTLSLTCAVSGGSISSSNWWSWVRQPPGKGLEWIGEIYHSGSTNYNPSLKSRVTISVDKSKNQFSLKLGSVTAADTAVYYCAREVVSGLYGTIFDYWGQGTLVTVSS
VL: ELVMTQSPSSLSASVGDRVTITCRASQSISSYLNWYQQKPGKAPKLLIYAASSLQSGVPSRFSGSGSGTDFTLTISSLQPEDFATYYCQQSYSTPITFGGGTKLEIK
notes: tested as IgG
With B4, the binding result with adenosine A2A receptor [4] is recorded as “binds”.

B5: A2A-18 (antibody, V domains shown)
VH: EVQLVESGGGLVKPGGSLRLSCAASGFSFSGYAMSWVRQAPGKGLEWVSVISGSGGSTNYADSVKGRFTISRDNSKNTLYLQMNSLRAEDTAVYYCAAARGYPRWRLGRRYDYWGQGTLVTVSS
VL: DIQMTQSPSSLSASVGDRVTITCRASQSVTTYLNWYQQKPGKAPKLLIYSASSLQSGVPSRFSGSGSGTDFTLTISSLQPEDFATYYCQQTYATPWTFGGGTKVEIK
notes: tested as IgG
In the case of B5, the binding result in the experiment with adenosine A2A receptor [5] is “binds”.
